Laboratory results as given in patent US20240350588A1 (SUNSHINE LAKE PHARMA, published 2024).

Target: T1, human GFRAL (UniProtKB-Q6UXVO) (human, UniProt Q6UXV0 19-394)
T1 sequence (looked up): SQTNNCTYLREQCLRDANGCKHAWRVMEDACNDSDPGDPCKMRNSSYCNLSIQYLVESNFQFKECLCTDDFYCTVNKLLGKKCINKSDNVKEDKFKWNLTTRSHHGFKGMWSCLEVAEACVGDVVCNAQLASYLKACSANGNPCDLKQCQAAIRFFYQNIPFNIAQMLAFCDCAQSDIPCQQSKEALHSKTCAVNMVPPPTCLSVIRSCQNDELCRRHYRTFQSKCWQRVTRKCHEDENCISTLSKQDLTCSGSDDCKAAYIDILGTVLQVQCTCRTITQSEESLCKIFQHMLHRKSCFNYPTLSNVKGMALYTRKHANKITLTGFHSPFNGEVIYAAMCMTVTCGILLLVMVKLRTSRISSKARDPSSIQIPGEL
Experiment: cell-based or functional assay

B1: Fc-GDF15 fusion protein M21 (Fc fusion)
chain: APEAAGGPSVFLFPPKPKDTLMISRTPEVTCVVVDVSQEDPEVQFNWYVDGVEVHNAKTKPREEQFNSTYRVVSVLTVLHQDWLNGKEYKCKVSNKGLPSSIEKTISKAKGQPREPQVYTLPPSQEEMTKNQVSLTCLVKGFYPSDIAVEWESNGQPENNYKTTPPVLDSDGSFFLYSRLTVDKSRWQEGNVFSCSVMHEALHNHYTQESLSLSLGGGGGSGGGGSAPAPAPAPAPAPAPAPAPAPGGGGSGGGGSDCPLGPGRCCRLHTVRASLEDLGWADWVLSPREVQVTMCIGACPSQFRAANMHAQIKTSLHRLKPDTVPAPCCVPASYNPMVLIQKTDTGVSLQTYDDLLAKDCHCI
Relative activity ratio (native GDF15 EC50: Fc-GDF15 construct EC50), ERK1/2 phosphorylation HTRF in HEK293T cells expressing human GFRAL and RET: 3.87 ratio

B2: Fc-GDF15 fusion protein M23 (Fc fusion)
chain: APEAAGGPSVFLFPPKPKDTLMISRTPEVTCVVVDVSQEDPEVQFNWYVDGVEVHNAKTKPREEQFNSTYRVVSVLTVLHQDWLNGKEYKCKVSNKGLPSSIEKTISKAKGQPREPQVYTLPPSQEEMTKNQVSLTCLVKGFYPSDIAVEWESNGQPENNYKTTPPVLDSDGSFFLYSRLTVDKSRWQEGNVFSCSVMHEALHNHYTQESLSLSLGGGGGSGGGGSAPAPAPAPAPAPAPAPAPAPGGGGSGGGGSECPLGPGRCCRLHTVRASLEDLGWADWVLSPREVQVTMCIGACPSQFRAANMHAQIKTSLHRLKPDTVPAPCCVPASYNPMVLIQKTDTGVSLQTYDDLLAKDCHCI
Relative activity ratio (native GDF15 EC50: Fc-GDF15 construct EC50), ERK1/2 phosphorylation HTRF in HEK293T cells expressing human GFRAL and RET: 3.38 ratio

B3: natural GDF15 (ACROBiosystems, GD5-H5149) (ligand)
chain: ARNGDHCPLGPGRCCRLHTVRASLEDLGWADWVLSPREVQVTMCIGACPSQFRAANMHAQIKTSLHRLKPDTVPAPCCVPASYNPMVLIQKTDTGVSLQTYDDLLAKDCHCI
Relative activity ratio (native GDF15 EC50: Fc-GDF15 construct EC50), ERK1/2 phosphorylation HTRF in HEK293T cells expressing human GFRAL and RET: 1 ratio

B4: Fc-GDF15 fusion protein M9 (Fc fusion)
chain: APEAAGGPSVFLFPPKPKDTLMISRTPEVTCVVVDVSQEDPEVQFNWYVDGVEVHNAKTKPREEQFNSTYRVVSVLTVLHQDWLNGKEYKCKVSNKGLPSSIEKTISKAKGQPREPQVYTLPPSQREMTKNQVSLTCLVKGFYPSDIAVEWESNGQPENNYKTTPPVLDSDGSFFLYSRLTVDKSRWQEGNVFSCSVMHEALHNHYTQKSLSLSLGGGGGSGGGGSAPAPAPAPAPAPAPAPAPAPGGGGSGGGGSDHCPLGPGRCCRLHTVRASLEDLGWADWVLSPREVQVTMCIGACPSQFRAANMHAQIKTSLHRLKPDTVPAPCCVPASYNPMVLIQKTDTGVSLQTYDDLLAKDCHCI
Relative activity ratio (native GDF15 EC50: Fc-GDF15 construct EC50), ERK1/2 phosphorylation HTRF in HEK293T cells expressing human GFRAL and RET: 1.33 ratio

B5: Fc-GDF15 fusion protein M27 (Fc fusion)
chain: APEAAGGPSVFLFPPKPKDTLMISRTPEVTCVVVDVSQEDPEVQFNWYVDGVEVHNAKTKPREEQFNSTYRVVSVLTVLHQDWLNGKEYKCKVSNKGLPSSIEKTISKAKGQPREPQVYTLPPSQEEMTKNQVSLTCLVKGFYPSDIAVEWESNGQPENNYKTTPPVLDSDGSFFLYSRLTVDKSRWQEGNVFSCSVMHEALHNHYTQESLSLSLGGGGGSGGGGSAPAPAPAPAPAPAPAPAPAPGGGGSGGGGSDHCPLGPGRCCRLHTVRASLEELGWADWVLSPREVQVTMCIGACPSQFRAANMHAQIKTSLHRLRPDTVPAPCCVPASYNPMVLIQKTDTGVSLQTYDDLLAKDCHCI
Relative activity ratio (native GDF15 EC50: Fc-GDF15 construct EC50), ERK1/2 phosphorylation HTRF in HEK293T cells expressing human GFRAL and RET: 2.66 ratio

B6: Fc-GDF15 fusion protein M11 (Fc fusion)
chain: APEAAGGPSVFLFPPKPKDTLMISRTPEVTCVVVDVSQEDPEVQFNWYVDGVEVHNAKTKPREEQFNSTYRVVSVLTVLHQDWLNGKEYKCKVSNKGLPSSIEKTISKAKGQPREPQVYTLPPSQAEMTKNQVSLTCLVKGFYPSDIAVEWESNGQPENNYKTTPPVLDSDGSFFLYSRLTVDKSRWQEGNVFSCSVMHEALHNHYTQKSLSLSLGGGGGSGGGGSAPAPAPAPAPAPAPAPAPAPGGGGSGGGGSDHCPLGPGRCCRLHTVRASLEDLGWADWVLSPREVQVTMCIGACPSQFRAANMHAQIKTSLHRLKPDTVPAPCCVPASYNPMVLIQKTDTGVSLQTYDDLLAKDCHCI
Relative activity ratio (native GDF15 EC50: Fc-GDF15 construct EC50), ERK1/2 phosphorylation HTRF in HEK293T cells expressing human GFRAL and RET: 2.02 ratio

B7: Fc-GDF15 fusion protein M25 (Fc fusion)
chain: APEAAGGPSVFLFPPKPKDTLMISRTPEVTCVVVDVSQEDPEVQFNWYVDGVEVHNAKTKPREEQFNSTYRVVSVLTVLHQDWLNGKEYKCKVSNKGLPSSIEKTISKAKGQPREPQVYTLPPSQEEMTKNQVSLTCLVKGFYPSDIAVEWESNGQPENNYKTTPPVLDSDGSFFLYSRLTVDKSRWQEGNVFSCSVMHEALHNHYTQESLSLSLGGGGGSGGGGSAPAPAPAPAPAPAPAPAPAPGGGGSGGGGSDHCPLGPGRCCRLHTVHASLEDLGWADWVLSPREVQVTMCIGACPSQFRAANMHAQIKTSLHRLKPDTVPAPCCVPASYNPMVLIQKTDTGVSLQTYDDLLAKDCHCI
Relative activity ratio (native GDF15 EC50: Fc-GDF15 construct EC50), ERK1/2 phosphorylation HTRF in HEK293T cells expressing human GFRAL and RET: 4.76 ratio

B8: Fc-GDF15 fusion protein M10 (Fc fusion)
chain: APEAAGGPSVFLFPPKPKDTLMISRTPEVTCVVVDVSQEDPEVQFNWYVDGVEVHNAKTKPREEQFNSTYRVVSVLTVLHQDWLNGKEYKCKVSNKGLPSSIEKTISKAKGQPREPQVYTLPPSQQEMTKNQVSLTCLVKGFYPSDIAVEWESNGQPENNYKTTPPVLDSDGSFFLYSRLTVDKSRWQEGNVFSCSVMHEALHNHYTQKSLSLSLGGGGGSGGGGSAPAPAPAPAPAPAPAPAPAPGGGGSGGGGSDHCPLGPGRCCRLHTVRASLEDLGWADWVLSPREVQVTMCIGACPSQFRAANMHAQIKTSLHRLKPDTVPAPCCVPASYNPMVLIQKTDTGVSLQTYDDLLAKDCHCI
Relative activity ratio (native GDF15 EC50: Fc-GDF15 construct EC50), ERK1/2 phosphorylation HTRF in HEK293T cells expressing human GFRAL and RET: 1.62 ratio

B9: Fc-GDF15 fusion protein M24 (Fc fusion)
chain: APEAAGGPSVFLFPPKPKDTLMISRTPEVTCVVVDVSQEDPEVQFNWYVDGVEVHNAKTKPREEQFNSTYRVVSVLTVLHQDWLNGKEYKCKVSNKGLPSSIEKTISKAKGQPREPQVYTLPPSQEEMTKNQVSLTCLVKGFYPSDIAVEWESNGQPENNYKTTPPVLDSDGSFFLYSRLTVDKSRWQEGNVFSCSVMHEALHNHYTQESLSLSLGGGGGSGGGGSAPAPAPAPAPAPAPAPAPAPGGGGSGGGGSDHCPLGPGRCCRLHTVQASLEDLGWADWVLSPREVQVTMCIGACPSQFRAANMHAQIKTSLHRLKPDTVPAPCCVPASYNPMVLIQKTDTGVSLQTYDDLLAKDCHCI
Relative activity ratio (native GDF15 EC50: Fc-GDF15 construct EC50), ERK1/2 phosphorylation HTRF in HEK293T cells expressing human GFRAL and RET: 2.65 ratio

B10: Fc-GDF15 fusion protein M26 (Fc fusion)
chain: APEAAGGPSVFLFPPKPKDTLMISRTPEVTCVVVDVSQEDPEVQFNWYVDGVEVHNAKTKPREEQFNSTYRVVSVLTVLHQDWLNGKEYKCKVSNKGLPSSIEKTISKAKGQPREPQVYTLPPSQEEMTKNQVSLTCLVKGFYPSDIAVEWESNGQPENNYKTTPPVLDSDGSFFLYSRLTVDKSRWQEGNVFSCSVMHEALHNHYTQESLSLSLGGGGGSGGGGSAPAPAPAPAPAPAPAPAPAPGGGGSGGGGSDHCPLGPGRCCRLHTVRASLEELGWADWVLSPREVQVTMCIGACPSQFRAANMHAQIKTSLHRLKPDTVPAPCCVPASYNPMVLIQKTDTGVSLQTYDDLLAKDCHCI
Relative activity ratio (native GDF15 EC50: Fc-GDF15 construct EC50), ERK1/2 phosphorylation HTRF in HEK293T cells expressing human GFRAL and RET: 2.91 ratio

B11: Fc-GDF15 fusion protein M20 (Fc fusion)
chain: APEAAGGPSVFLFPPKPKDTLMISRTPEVTCVVVDVSQEDPEVQFNWYVDGVEVHNAKTKPREEQFNSTYRVVSVLTVLHQDWLNGKEYKCKVSNKGLPSSIEKTISKAKGQPREPQVYTLPPSQEEMTKNQVSLTCLVKGFYPSDIAVEWESNGQPENNYKTTPPVLDSDGSFFLYSRLTVDKSRWQEGNVFSCSVMHEALHNHYTQESLSLSLGGGGGSGGGGSAPAPAPAPAPAPAPAPAPAPGGGGSGGGGSEHCPLGPGRCCRLHTVRASLEDLGWADWVLSPREVQVTMCIGACPSQFRAANMHAQIKTSLHRLKPDTVPAPCCVPASYNPMVLIQKTDTGVSLQTYDDLLAKDCHCI
Relative activity ratio (native GDF15 EC50: Fc-GDF15 construct EC50), ERK1/2 phosphorylation HTRF in HEK293T cells expressing human GFRAL and RET: 3.08 ratio

B12: Fc-GDF15 fusion protein M22 (Fc fusion)
chain: APEAAGGPSVFLFPPKPKDTLMISRTPEVTCVVVDVSQEDPEVQFNWYVDGVEVHNAKTKPREEQFNSTYRVVSVLTVLHQDWLNGKEYKCKVSNKGLPSSIEKTISKAKGQPREPQVYTLPPSQEEMTKNQVSLTCLVKGFYPSDIAVEWESNGQPENNYKTTPPVLDSDGSFFLYSRLTVDKSRWQEGNVFSCSVMHEALHNHYTQESLSLSLGGGGGSGGGGSAPAPAPAPAPAPAPAPAPAPGGGGSGGGGSDECPLGPGRCCRLHTVRASLEDLGWADWVLSPREVQVTMCIGACPSQFRAANMHAQIKTSLHRLKPDTVPAPCCVPASYNPMVLIQKTDTGVSLQTYDDLLAKDCHCI
Relative activity ratio (native GDF15 EC50: Fc-GDF15 construct EC50), ERK1/2 phosphorylation HTRF in HEK293T cells expressing human GFRAL and RET: 1.42 ratio

B13: Fc-GDF15 fusion protein M13 (Fc fusion)
chain: EAAGGPSVFLFPPKPKDTLMISRTPEVTCVVVDVSQEDPEVQFNWYVDGVEVHNAKTKPREEQFNSTYRVVSVLTVLHQDWLNGKEYKCKVSNKGLPSSIEKTISKAKGQPREPQVYTLPPSQEEMTKNQVSLTCLVKGFYPSDIAVEWESNGQPENNYKTTPPVLDSDGSFFLYSRLTVDKSRWQEGNVFSCSVMHEALHNHYTQESLSLSLGGGGGSGGGGSAPAPAPAPAPAPAPAPAPAPGGGGSGGGGSDHCPLGPGRCCRLHTVRASLEDLGWADWVLSPREVQVTMCIGACPSQFRAANMHAQIKTSLHRLKPDTVPAPCCVPASYNPMVLIQKTDTGVSLQTYDDLLAKDCHCI
Relative activity ratio (native GDF15 EC50: Fc-GDF15 construct EC50), ERK1/2 phosphorylation HTRF in HEK293T cells expressing human GFRAL and RET: 1.89 ratio
